Assay results from EP4554620A1.

How the values were obtained:
[1] = target: Human TIGIT residues 23-128 with C-terminal HIS tag (human) (UniProt Q495A1); test: SPR, amine coupling, pH 7.4 against pH 6.0
[2] = target: Human TIGIT residues 23-128 PRO79A mutant (human) (UniProt Q495A1); test: SPR, capture immobilization, TIGIT alanine mutants
[3] = target: Human TIGIT residues 23-128 HIS76A mutant (human) (UniProt Q495A1); test: SPR, capture immobilization, TIGIT alanine mutants
[4] = target: Human TIGIT residues 23-128 ASP63A mutant (human) (UniProt Q495A1); test: SPR, capture immobilization, TIGIT alanine mutants
[5] = target: Human TIGIT residues 23-128 ILE68A mutant (human) (UniProt Q495A1); test: SPR, capture immobilization, TIGIT alanine mutants
[6] = target: Human TIGIT residues 23-128 LEU73A mutant (human) (UniProt Q495A1); test: SPR, capture immobilization, TIGIT alanine mutants
[7] = target: Human TIGIT residues 23-128 LEU73A/HIS76A double mutant (human) (UniProt Q495A1); test: SPR, capture immobilization, TIGIT alanine mutants
Chain of Human TIGIT residues 23-128 LEU73A/HIS76A double mutant (human) (Q495A1 other isoform, or with tags, fused parts or gaps mutant, form in doubt): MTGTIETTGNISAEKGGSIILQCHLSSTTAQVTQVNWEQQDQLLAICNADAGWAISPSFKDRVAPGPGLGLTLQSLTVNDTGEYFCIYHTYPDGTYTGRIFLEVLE

Chain of Human TIGIT residues 23-128 ILE68A mutant (human) (Q495A1 other isoform, or with tags, fused parts or gaps mutant, form in doubt): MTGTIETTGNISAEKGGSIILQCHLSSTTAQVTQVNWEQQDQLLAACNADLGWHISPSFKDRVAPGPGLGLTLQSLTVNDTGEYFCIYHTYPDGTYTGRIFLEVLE
Chain of Human TIGIT residues 23-128 LEU73A mutant (human) (Q495A1 other isoform, or with tags, fused parts or gaps mutant, form in doubt): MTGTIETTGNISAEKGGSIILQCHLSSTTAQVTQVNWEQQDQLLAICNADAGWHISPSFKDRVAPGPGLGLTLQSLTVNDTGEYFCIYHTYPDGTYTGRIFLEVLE
Chain of Human TIGIT residues 23-128 ASP63A mutant (human) (Q495A1 other isoform, or with tags, fused parts or gaps mutant, form in doubt): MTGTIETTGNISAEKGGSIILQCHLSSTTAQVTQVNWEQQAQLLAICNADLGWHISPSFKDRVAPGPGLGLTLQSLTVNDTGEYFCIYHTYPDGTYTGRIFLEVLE
Chain of Human TIGIT residues 23-128 with C-terminal HIS tag (human) (Q495A1 23-128, form in doubt): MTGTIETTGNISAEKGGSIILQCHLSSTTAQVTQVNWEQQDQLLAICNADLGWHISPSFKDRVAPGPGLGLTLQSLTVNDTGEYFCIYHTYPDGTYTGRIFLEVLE
Chain of Human TIGIT residues 23-128 HIS76A mutant (human) (Q495A1 other isoform, or with tags, fused parts or gaps mutant, form in doubt): as the sequence (Q495A1 23-128, form in doubt) above, with H54A counted along it
Chain of Human TIGIT residues 23-128 PRO79A mutant (human) (Q495A1 other isoform, or with tags, fused parts or gaps mutant, form in doubt): as the sequence (Q495A1 23-128, form in doubt) above, with P57A counted along it

fold increase of binding affinity (KD) from pH 7.4 to pH 6.0 [1]: 17 fold | fold lower binding affinity against WT TIGIT [2]: 3 fold | fold reduction of binding against wild-type TIGIT [3]: > 10 fold | fold decrease in binding affinity against WT TIGIT [4]: 7 fold | fold decrease in binding affinity against WT TIGIT [5]: 30 fold | fold reduction of binding against wild-type TIGIT [5]: > 10 fold | fold reduction in binding affinity against WT TIGIT [6]: 7 fold | fold reduction of binding against wild-type TIGIT [7]: > 10 fold
Substance: A1217 (Ociperlimab) (antibody)
